Where two headings read alike, the source gives them in different places.
Key:
[1] = biological target: GNNQQNY, N-terminal hepta-peptide of yeast prion protein Sup35 (yeast)
[2] = biological target: GNNQQNY, N-terminal hepta-peptide of yeast prion protein Sup35 (yeast); remark: listed apart in the source

GNNQQNY, N-terminal hepta-peptide of yeast prion protein Sup35
size of the critical nucleus n* [1]: 7.2 monomers
size of the critical nucleus n* [2]: 6 monomers

From publication doi:10.1101/2020.07.27.221150
